Measurements published in patent US20100055095A1 (Genentech, published 2010).

Key:
Assay in all cases: co-immunoprecipitation from transfected Cos 7 cells on HA beads, western blot with anti-HA and anti-p110α
p110α H1047R = target: T1, p110α H1047R (human, UniProt P42336 1-1068)
T1 construct: Known hot-spot mutant, constitutively active p110α; also called p110alpha H1047R
Source text: (§1) Proteins were immunoprecipitated using HA beads, separated by SDS-PAGE, transferred to nitrocellulose, and detected using anti-HA and anti-p110α antibodies. […] In the header row of Table 2, the terms “p110alpha E545K” and “p110alpha H1047R” refer to two known mutational “hot spots” in p110α which result in constitutively active p110α.

p110α E545K = target: T2, p110α E545K (human, UniProt P42336 1-1068)
T2 construct: Known hot-spot mutant, constitutively active p110α; also called p110alpha E545K
T2 sequence (P42336 whole entry E545K): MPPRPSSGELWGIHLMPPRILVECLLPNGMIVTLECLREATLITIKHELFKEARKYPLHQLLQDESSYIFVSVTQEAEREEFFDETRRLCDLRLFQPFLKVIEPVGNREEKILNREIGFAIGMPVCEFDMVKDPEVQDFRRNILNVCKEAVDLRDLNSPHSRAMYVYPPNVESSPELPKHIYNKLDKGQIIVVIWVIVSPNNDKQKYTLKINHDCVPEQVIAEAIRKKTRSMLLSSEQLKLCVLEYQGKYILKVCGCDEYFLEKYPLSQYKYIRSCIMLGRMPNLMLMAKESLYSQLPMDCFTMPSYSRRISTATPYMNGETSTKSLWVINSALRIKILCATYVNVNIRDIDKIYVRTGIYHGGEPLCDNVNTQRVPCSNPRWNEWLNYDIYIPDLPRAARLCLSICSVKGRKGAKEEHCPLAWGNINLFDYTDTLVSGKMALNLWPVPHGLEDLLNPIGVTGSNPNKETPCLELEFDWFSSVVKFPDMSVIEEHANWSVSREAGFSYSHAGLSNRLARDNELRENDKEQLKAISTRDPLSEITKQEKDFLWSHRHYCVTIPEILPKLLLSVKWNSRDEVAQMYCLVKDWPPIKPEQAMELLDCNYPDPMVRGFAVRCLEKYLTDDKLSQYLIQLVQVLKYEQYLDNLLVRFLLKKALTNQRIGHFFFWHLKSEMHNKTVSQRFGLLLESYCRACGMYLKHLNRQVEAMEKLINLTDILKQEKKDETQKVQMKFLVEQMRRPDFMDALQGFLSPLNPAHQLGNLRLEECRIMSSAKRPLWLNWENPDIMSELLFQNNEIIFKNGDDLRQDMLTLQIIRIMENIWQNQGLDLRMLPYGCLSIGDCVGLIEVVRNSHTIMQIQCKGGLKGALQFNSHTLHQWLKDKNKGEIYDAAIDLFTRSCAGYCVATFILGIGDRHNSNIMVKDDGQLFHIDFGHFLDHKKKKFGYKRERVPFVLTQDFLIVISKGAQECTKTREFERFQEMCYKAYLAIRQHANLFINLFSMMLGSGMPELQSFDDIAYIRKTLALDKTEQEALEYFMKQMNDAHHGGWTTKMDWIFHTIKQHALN
Source text: as §1

[1] = target: T3, p110α, wild-type (protein encoded by PIK3CA, catalytic subunit of PI3K) (human, UniProt P42336 1-1068)
T3 construct: also called p110alpha WT
T3 sequence (P42336 whole entry): as the sequence (P42336 whole entry E545K) above, with K545E counted along it
Source text: as §1

Measured: binding result

T1 sequence (P42336 whole entry H1047R): as the sequence (P42336 whole entry E545K) above, with K545E, H1047R counted along it

B1: N-terminally HA-tagged p85α R162stop (other)
chain: MSAEGYQYRALYDYKKEREEDIDLHLGDILTVNKGSLVALGFSDGQEARPEEIGWLNGYNETTGERGDFPGTYVEYIGRKKISPPTPKPRPPRPLPVAPGSSKTEADVEQQALTLPDLAEQFAPPDIAPPLLIKLVEAIEKKGLECSTLYRTQSSSNLAEL
notes: Stop codon at R162; also called p85 R162stop; 162R>O; not shown: N-terminal HA tag
no binding: p110α H1047R | p110α E545K | [1]
